Measured values as given in patent US6716858B1, “Methods for inhibiting diabetic complications” (Kansas University Medical Center, priority 1995, dated 2004).

B1: RSA: purified rat serum albumin, unmodified (protein, UniProt P02770 25-608, looked up)
Albumin: EAHKSEIAHRFKDLGEQHFKGLVLIAFSQYLQKCPYEEHIKLVQEVTDFAKTCVADENAENCDKSIHTLFGDKLCAIPKLRDNYGELADCCAKQEPERNECFLQHKDDNPNLPPFQRPEAEAMCTSFQENPTSFLGHYLHEVARRHPYFYAPELLYYAEKYNEVLTQCCTESDKAACLTPKLDAVKEKALVAAVRQRMKCSSMQRFGERAFKAWAVARMSQRFPNAEFAEITKLATDVTKINKECCHGDLLECADDRAELAKYMCENQATISSKLQACCDKPVLQKSQCLAEIEHDNIPADLPSIAADFVEDKEVCKNYAEAKDVFLGTFLYEYSRRHPDYSVSLLLRLAKKYEATLEKCCAEGDPPACYGTVLAEFQPLVEEPKNLVKTNCELYEKLGEYGFQNAVLVRYTQKAPQVSTPTLVEAARNLGRVGTKCCTLPEAQRLPCVEDYLSAILNRLCVLHEKTPVSEKVTKCCSGSLVERRPCFSALTVDETYVPKEFKAETFTFHSDICTLPDKEKQIKKQTALAELVKHKPKATEDQLKTVMGDFAQFVDKCCKAADKDNCFATEGPNLVARSKEALA
B2: NaBH4-reduced: Amadori-RSA reduced with NaBH4 (protein, UniProt P02770 25-608, looked up)
Albumin: EAHKSEIAHRFKDLGEQHFKGLVLIAFSQYLQKCPYEEHIKLVQEVTDFAKTCVADENAENCDKSIHTLFGDKLCAIPKLRDNYGELADCCAKQEPERNECFLQHKDDNPNLPPFQRPEAEAMCTSFQENPTSFLGHYLHEVARRHPYFYAPELLYYAEKYNEVLTQCCTESDKAACLTPKLDAVKEKALVAAVRQRMKCSSMQRFGERAFKAWAVARMSQRFPNAEFAEITKLATDVTKINKECCHGDLLECADDRAELAKYMCENQATISSKLQACCDKPVLQKSQCLAEIEHDNIPADLPSIAADFVEDKEVCKNYAEAKDVFLGTFLYEYSRRHPDYSVSLLLRLAKKYEATLEKCCAEGDPPACYGTVLAEFQPLVEEPKNLVKTNCELYEKLGEYGFQNAVLVRYTQKAPQVSTPTLVEAARNLGRVGTKCCTLPEAQRLPCVEDYLSAILNRLCVLHEKTPVSEKVTKCCSGSLVERRPCFSALTVDETYVPKEFKAETFTFHSDICTLPDKEKQIKKQTALAELVKHKPKATEDQLKTVMGDFAQFVDKCCKAADKDNCFATEGPNLVARSKEALA
modifications: ribose-glycated, NaBH4-reduced

What was measured:
[1] = system: Sprague-Dawley rats, glomerular changes; assay type: in vivo, rat; details: for Alcian Blue pH 1.0, scoring of glomerular staining (sulfated glycosaminoglycans) / Alcian Blue pH 2.5, scoring of glomerular staining (acidic glycosaminoglycans) / HS core protein (Ab BL-31), scoring of glomerular staining: 6 weeks, average with standard error; for Alcian Blue pH 1.0, scoring of glomerular staining (sulfated glycosaminoglycans) / Alcian Blue pH 2.5, scoring of glomerular staining (acidic glycosaminoglycans) / HS core protein (Ab BL-31), scoring of glomerular staining / Creat C-2wk / Creat C-6wk: n = 4; for Creat C-2wk: creatinine clearance at 2 weeks; for Creat C-6wk: creatinine clearance at 6 weeks; for average glomerular volume / decrease in heparan sulfate (HS) side-chain staining relative to controls / glomerular albumin deposition / cross-linking relative to controls / immunofluorescent glomerular staining for Heparan Sulfate Proteoglycan Core protein / immunofluorescent glomerular staining for Heparan Sulfate Proteoglycan side-chain / immunofluorescent glomerular staining for RSA / increase in glomerular volume (GV) relative to controls / Alcian blue pH 1.0 glomerular staining versus controls / increase in acidic glycosaminoglycans, Alcian Blue pH 2.5 staining: rat, in vivo
Experimental: Male Sprague-Dawley rats (Sasco, 100 g) were used. After a 1 week adaptation period, rats were placed in metabolic cages to obtain a 24 hour urine specimen for 2 days before administration of injections. Rats were then divided into experimental and control groups and given tail vein injections with either saline, unmodified RSA (50 mg/kg), Amadori-RSA (50 mg/kg), NaBH4-reduced Amadori-RSA (50 mg/kg), or AGE-RSA (50 mg/kg).
Rats injected with Amadori-RSA and AGE-RSA were then either left untreated, or further treated by the administration of either aminoguanidine (AG; 25 mg/kg), pyridoxamine (PM; 25 mg/kg), or a combination of AG and PM (10 mg/kg each) through the drinking water. Body weight and water intake of the rats were monitored weekly in order to adjust dosages. At the conclusion of the experimental study the rats were placed in metabolic cages to obtain 24 hour urine specimen for 2 days prior to sacrificing the animals.
After perfusion with saline, kidney sections were fixed in ice-cold 10% neutral buffered formalin. Paraffin-embedded tissue sections from all rat groups (n=4 per group) were processed for staining with Harris' alum hematoxylin and eosin (H&E), perodic acid/Schiff reagent (PAS), and alcian blue (pH 1.0 and pH 2.5) stains for histological examination. The alcian blue sections were scored by two investigators in a blinded fashion.
Parrafin-embedded sections were deparaffinized and then blocked with 10% goat serum in PBS for 30 min at room temperature. […] The sections were then rinsed for 30 min with PBS in the dark, mounted in aqueous mounting media for immunocytochemistry (Biomeda), and cover slipped. Sections were scored in a blinded fashion. Kidney sections were evaluated by the number and intensity of glomerular staining in 5 regions around the periphery of the kidney. Scores were normalized for the immunofluorescent score per 100 glomeruli with a scoring system of 0-3.
All animals studies were carried out in conformance with institutional guidelines for animal research protocols. Male Sprague-Dawley 100 g rats (Sasco Co., Omaha Nebr.) were used in these studies. After a 1 week adaptation period, rats were placed in metabolic cages for 2 days to get two 24 hour urine specimens before starting treatment. Rats were then given daily single tail vein injections for 6 weeks according to the following treatment groups: saline, unmodified RSA (50 mg/kg), Amadori-RSA (50 mg/kg), NaBH4-reduced Amadori-RSA (50 mg/kg), and AGE-RSA (50 mg/kg). Groups of rats injected with Amadori-RSA or AGE-RSA were also administered aminoguanidine (25 mg/kg/day), pyridoxamine (25 mg/kg/day), a combination of the two (10 mg/kg/day each), or with nothing added to the drinking water. Body weight and water intake of the rat were monitored weekly in order to adjust dosages. At the conclusion of the study, the rats were placed in metabolic cages for two days to get two 24 hour urine specimens before sacrificing the animals.
Total protein in urine was determined by Bio-Rad assay. Albumin in urine was determined by competitive ELISA using rabbit anti-rat serum albumin (Cappell) as primary antibody (1:2000) and goat anti-rabbit IgG (Sigma) as a secondary antibody (1:2000). Urine was tested with Multistix 8 SG (Miles) for glucose, ketone, specific gravity, blood, pH, protein, nitrite and leukocytes. Creatinine measurements were performed with a Beckman creatinine analyzer II. Intracardiac blood samples were collected before termination and were used in the determination of creatinine clearance, blood glucose (glucose oxidase, Sigma), fructosamine (nitroblue tetrazolium, Sigma), and glycated Hb (Glycotest II analytical boronate columns, Pierce).
After perfusion with saline, kidney sections were fixed in ice-cold 10% neutral buffered formalin. […]

[2] = system: post-Amadori AGE formation, RNase Amadori intermediate; assay: Interrupted (post-Amadori) ribose glycation assay, RNase; assay type: biochemical, bovine; details: up to 50 mM; protein not stated (FIG. 21)
Experimental: ELISA detection of AGE products. The general method of Engvall (1981, Methods Enzymol. 70:419-439) was used to perform the ELISA. Typically, glycated protein samples were diluted to approximately 1.5 ug/ml in 0.1 M sodium carbonate buffer of pH 9.5 to 9.7. The protein was coated overnight at room temperature onto 96-well polystyrene plates by pippetting 200 ul of the protein solution in each well (0.3 ug/well). After coating, the protein was washed from the wells with a saline solution containing 0.05% Tween-20. The wells were then blocked with 200 ul of 1% casein in carbonate buffer for 2 h at 37° C. followed by washing. Rabbit anti-AGE antibodies were diluted at a titer of about 1:350 in incubation buffer, and incubated for 1 h at 37° C., followed by washing. In order to minimize background readings, antibodies R479 used to detect glycated RNase were raised against glycated BSA, and antibodies R618 used to detect glycated BSA and glycated Hb were raised against glycated RNase. An alkaline phosphatase-conjugated antibody to rabbit IgG was then added as the secondary antibody at a titer of 1:2000 or 1:2500 (depending on lot) and incubated for 1 h at 37° C., followed by washing. The p-nitrophenylphosphate substrate solution was then added (200 ul/well) to the plates, with the absorbance of the released p-nitrophenolate being monitored at 410 nm with a Dynatech MR 4000 microplate reader.
Glycation Modifications Modification with ribose or glucose was generally done at 37° C. in 0.4 M phosphate buffer of pH 7.5 containing 0.02% sodium azide. The high buffer concentration was always used with 0.5 M ribose modifications. The solutions were kept in capped tubes and opened only to remove timed aliquots that were immediately frozen for later carrying out the various analyses. “Interrupted glycation” experiments were carried out by first incubating protein with the ribose at 37° C. for 8 or 24 h, followed by immediate and extensive dialysis against frequent cold buffer changes at 4° C. The samples were then reincubated by quickly warming to 37° C. in the absence of external ribose. Aliquots were taken and frozen at various intervals for later analysis. Due to the low molecular weight of RNase, protein concentrations were remeasured after dialysis even when low molecular weight cut-off dialysis tubing was used. An alternative procedure was also devised (see below) in which interruption was achieved by simple 100-fold dilution from reaction mixtures containing 0.5 M ribose. Protein concentrations were estimated from UV spectra. The difference in molar extinction between the peak (278 nm) and trough (250 nm) was used for RNase concentration determinations in order to compensate for the general increase in UV absorbance that accompanies glycation. Time-dependent UV-difference spectral studies were carried out to characterize the glycation contributions of the UV spectrum. […]
Glycation was first carried out by incubating protein (10 mg/ml) with 0.5 M ribose at 37° C. in 0.4 M phosphate buffer at pH 7.5 containing 0.2% sodium azide for 24 h in the absence of inhibitors. Glycation was then interrupted to remove excess and reversibly bound (Schiff base) sugar by extensive dialysis against frequent cold buffer changes at 4° C.

Molecule	Alcian Blue pH 1.0, scoring of glomerular staining (sulfated glycosaminoglycans) [1]	Alcian Blue pH 2.5, scoring of glomerular staining (acidic glycosaminoglycans) [1]	HS core protein (Ab BL-31), scoring of glomerular staining [1]	Creat C-2wk [1]	Creat C-6wk [1]	average glomerular volume [1]	decrease in heparan sulfate (HS) side-chain staining relative to controls [1] [%]	glomerular albumin deposition / cross-linking relative to controls [1]	immunofluorescent glomerular staining for Heparan Sulfate Proteoglycan Core protein [1]	immunofluorescent glomerular staining for Heparan Sulfate Proteoglycan side-chain [1]	immunofluorescent glomerular staining for RSA [1]	increase in glomerular volume (GV) relative to controls [1] [%]	Alcian blue pH 1.0 glomerular staining versus controls [1]	increase in acidic glycosaminoglycans, Alcian Blue pH 2.5 staining [1]	inhibition of post-Amadori AGE formation [2]
AGE-RSA: Amadori-RSA re-incubated in the absence of sugar for 2-3 days at 37° C.	1.25 ± 0.14	2.44± 0.21	238 ± 10	0.56 ± 0.04 ml/(min*100g)	0.86 ± 0.11 ml/(min*100g)	significant increase in average glomeruli volume	50	four-fold increase	slightly reduced staining	highly reduced staining	elevated staining	30	significantly decreased	50-60%	–
Amadori-RSA: rat serum albumin incubated with 0.5 M ribose for 12 hours, then dialyzed; negative for antigenic AGEs	2.00 ± 0.41	2.12 ± 0.12	235 ± 12	1.02 ± 0.10 ml/(min*100g)	0.60 ± 0.10 ml/(min*100g)	significant increase in average glomeruli volume	25	not different from the controls	slightly reduced staining	highly reduced staining	elevated staining	35	no significant difference	50-60%	–
CC(=O)N[C@@H](CCCCN)C(=O)O [N^60 -acetyl-L-lysine, N^α-acetyl-L-lysine]	–	–	–	–	–	–	–	–	–	–	–	–	–	–	failed to exhibit any significant inhibition of AGE formation
B1	2.75 ± 0.14	1.38 ± 0.24	226 ± 10	0.86 ± 0.16 ml/(min*100g)	0.70 ± 0.02 ml/(min*100g)	–	–	–	–	–	–	–	–	–	–
B2	–	1.81 ± 0.47	203 ± 14	–	0.86 ± 0.07 ml/(min*100g)	–	–	–	–	–	–	–	–	–	–
